Results as given in PMC11538506.

Biological target: DDX3X WT (MBP) (UniProt O00571 1-662)
Experiment: time-resolved fluorescence anisotropy

Chain of DDX3X WT (MBP) (O00571 whole entry): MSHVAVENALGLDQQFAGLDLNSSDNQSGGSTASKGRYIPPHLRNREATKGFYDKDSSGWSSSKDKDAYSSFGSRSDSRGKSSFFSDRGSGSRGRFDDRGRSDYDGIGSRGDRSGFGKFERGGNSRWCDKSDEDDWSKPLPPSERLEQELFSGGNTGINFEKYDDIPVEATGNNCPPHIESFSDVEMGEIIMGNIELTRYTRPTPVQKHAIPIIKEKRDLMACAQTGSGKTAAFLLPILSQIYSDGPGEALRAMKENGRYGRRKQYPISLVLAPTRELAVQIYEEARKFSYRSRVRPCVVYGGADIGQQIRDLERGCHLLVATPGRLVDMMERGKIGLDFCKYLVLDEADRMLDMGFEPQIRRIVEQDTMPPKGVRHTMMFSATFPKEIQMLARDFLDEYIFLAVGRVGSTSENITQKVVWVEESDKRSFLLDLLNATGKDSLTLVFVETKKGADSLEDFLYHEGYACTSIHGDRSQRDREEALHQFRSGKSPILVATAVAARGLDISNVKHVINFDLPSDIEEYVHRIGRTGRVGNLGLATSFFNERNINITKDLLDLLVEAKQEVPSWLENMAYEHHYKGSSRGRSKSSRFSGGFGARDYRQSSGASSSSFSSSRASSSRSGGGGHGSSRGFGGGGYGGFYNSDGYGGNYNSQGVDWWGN

B1: dsRNA anisotropy probe (18/42-mer) (dsRNA)
RNA 1: ACCGCUGCCGUCGCUCCG
RNA 2: UUUUUUUUUUUUUUUUUUUUUUUUCGGAGCGACGGCAGCGGU
B1: binds.
